Laboratory results taken from paper PMC3385512.

Substrate: Nc1ncnc2c1ncn2[C@@H]1O[C@H](COP(=O)(O)OP(=O)(O)OP(=O)(O)O)[C@@H](O)[C@H]1O
Experiment: purified protein, by the assay type

B1: ALK (V1058-P1620) G1202R (Homo sapiens; G1202R) (protein)
chain: VYRRKHQELQAMQMELQSPEYKLSKLRTSTIMTDYNPNYCFAGKTSSISDLKEVPRKNITLIRGLGHGAFGEVYEGQVSGMPNDPSPLQVAVKTLPEVCSEQDELDFLMEALIISKFNHQNIVRCIGVSLQSLPRFILLELMAGRDLKSFLRETRPRPSQPSSLAMLDLLHVARDIACGCQYLEENHFIHRDIAARNCLLTCPGPGRVAKIGDFGMARDIYRASYYRKGGCAMLPVKWMPPEAFMEGIFTSKTDTWSFGVLLWEIFSLGYMPYPSKSNQEVLEFVTSGGRMDPPKNCPGPVYRIMTQCWQHQPEDRPNFAIILERIEYCTQDPDVINTALPIEYGPLVEEEEKVPVRPKDPEGVPPLLVSQQAKREEERSPAAPPPLPTTSSGKAAKKPTAAEISVRVPRGPAVEGGHVNMAFSQSNPPSELHKVHGSRNKPTSLWNPTYGSWFTEKPTKKNNPIAKKEPHDRGNLGLEGSCTVPPNVATGRLPGASLLLEPSSLTANMKEVPLFRLRHFPCGNVNYGYQQQGLPLEAATAPGAGHYEDTILKSKNSMNQPGP
other: ALK G1202R
  Km: 23 µM

B2: ALK (V1058-P1620) S1206Y (Homo sapiens; S1206Y) (protein)
chain: VYRRKHQELQAMQMELQSPEYKLSKLRTSTIMTDYNPNYCFAGKTSSISDLKEVPRKNITLIRGLGHGAFGEVYEGQVSGMPNDPSPLQVAVKTLPEVCSEQDELDFLMEALIISKFNHQNIVRCIGVSLQSLPRFILLELMAGGDLKYFLRETRPRPSQPSSLAMLDLLHVARDIACGCQYLEENHFIHRDIAARNCLLTCPGPGRVAKIGDFGMARDIYRASYYRKGGCAMLPVKWMPPEAFMEGIFTSKTDTWSFGVLLWEIFSLGYMPYPSKSNQEVLEFVTSGGRMDPPKNCPGPVYRIMTQCWQHQPEDRPNFAIILERIEYCTQDPDVINTALPIEYGPLVEEEEKVPVRPKDPEGVPPLLVSQQAKREEERSPAAPPPLPTTSSGKAAKKPTAAEISVRVPRGPAVEGGHVNMAFSQSNPPSELHKVHGSRNKPTSLWNPTYGSWFTEKPTKKNNPIAKKEPHDRGNLGLEGSCTVPPNVATGRLPGASLLLEPSSLTANMKEVPLFRLRHFPCGNVNYGYQQQGLPLEAATAPGAGHYEDTILKSKNSMNQPGP
other: ALK S1206Y
  Km: 20 µM
